Target: T1, Human angiopoietin-2 (ANG-2) (human, UniProt O15123 19-496, limits assumed)
T1 construct: Bought (R&D Systems Cat. No. 623-AN) or produced in house; also called ANGPT2; huAngiopoietin-2
T1 sequence: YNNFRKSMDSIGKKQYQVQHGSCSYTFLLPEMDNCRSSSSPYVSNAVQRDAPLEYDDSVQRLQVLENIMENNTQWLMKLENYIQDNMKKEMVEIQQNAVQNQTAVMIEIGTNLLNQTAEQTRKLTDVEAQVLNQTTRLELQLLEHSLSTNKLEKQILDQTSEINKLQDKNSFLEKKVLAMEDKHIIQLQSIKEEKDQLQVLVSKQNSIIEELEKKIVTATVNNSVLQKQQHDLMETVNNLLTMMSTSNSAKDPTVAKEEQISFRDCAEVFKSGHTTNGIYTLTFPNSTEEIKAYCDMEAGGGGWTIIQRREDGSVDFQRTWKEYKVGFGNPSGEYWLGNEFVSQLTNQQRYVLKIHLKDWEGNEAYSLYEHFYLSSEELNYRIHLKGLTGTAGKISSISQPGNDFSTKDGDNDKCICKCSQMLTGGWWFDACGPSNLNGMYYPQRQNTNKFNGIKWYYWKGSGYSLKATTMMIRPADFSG
Test: ANG2/Tie2 receptor interaction ELISA (Experiment A): antibody dilutions pre-incubated with 0.2 ug/ml huAngiopoietin-2, coated human Tie2, bound ANG-2 detected
Experimental: Blocking of human ANG-2/human Tie2 interaction was shown by receptor interaction ELISA. 384-well Maxisorp plates (Nunc) were coated with 0.5 μg/ml human Tie2 (R&D Systems, UK, Cat. No. 313-TI or in house produced material) for 2 h at room temperature and blocked with PBS supplemented with 0.2% Tween-20 and 2% BSA (Roche Diagnostics GmbH, DE) for 1 h at room temperature under shaking. In the meantime, Dilutions of purified antibodies in PBS were incubated together with 0.2 μg/ml huAngiopoietin-1/2 (R&D Systems #923-AN/CF, R&D Systems, UK, Cat. No. 623-AN or in house produced material) for 1 hour at RT. After washing a mixture of 0.5 μg/ml biotinylated anti-Angiopoietin-1/2 clone (R&D Systems #BAF923, BAM0981 R&D Systems, UK) and 1:3000 diluted streptavidin HRP (Roche Diagnostics GmbH, DE, Cat. No. 11089153001) was added for 1 h. Thereafter the plates were washed 6 times with PBST. Plates were developed with freshly prepared ABTS reagent (Roche Diagnostics GmbH, DE, buffer #204 530 001, tablets #11 112 422 001) for 30 minutes at RT. Absorbance was measured at 405 nm.

B1: <ANG-2>Ang2i_LC06 (antibody, V domains shown)
VH: not shown
VL: QPGLTQPPSVSVAPGQTARITCGGNNIGSKSVHWYQQKPGQAPVLVVYDDSDRPSGIPERFSGSNSGNTATLTISRVEAGDEADYYCQVWDSSSDHYVFGTGTKVTVLG
notes: also called anti-ANG2 antibody
Work on B1 yielded an IC50 of 100 pM.
